# Data from patent US20250276092A1 (Regeneron, published 2025).
# Key:
# [1] = target: T1, human CD40 expressed on cells (human, UniProt P25942 21-277); test: cell-based or functional assay
# [2] = target: T1, human CD40 expressed on cells; test: cell-based or functional assay; remark: listed apart in the source
# [3] = target: T1, human CD40 expressed on cells; test: cell-based or functional assay; remark: listed apart in the source
# [4] = target: T2, human CD40 extracellular domain expressed with a C-terminal myc-myc-hexahistidine tag (human); test: ELISA, blocks 40 nM hCD40-mmH binding to coated 9His-hCD40L
# T2 construct: also called hCD40-MMH; hCD40-mmH
# Description: In the blocking assay, 9His-hCD40L was passively absorbed at a concentration of 5 μg/mL in PBS on a 96-well microtiter plate overnight at 4° C. […] In a separate 96-well microtiter plate, a fixed amount of 40 nM hCD40-mmH was pre-mixed with one of the following antibodies, at concentrations ranging from 977 pM to 1 μM in PBS+0.5% BSA: (1) anti-CD40×CD40 bispecific antibodies (REGN16431, REGN16432, REGN16634, and REGN16335); (2) parental anti-CD40 mAbs (bivalent antibodies comprising 2 fragment antigen-binding [Fab] arms identical to one of anti-CD40 Fab of anti-CD40×CD40 antibodies); (3) anti-CD40×Irrelevant antibodies (bivalent antibodies that incorporate one Fab arm identical to one of anti-CD40 Fab of anti-CD40×CD40 antibodies and another Fab arm specific to an irrelevant antigen); and (4) human IgG4 with Fc mutation isotype control antibodies (REGN7540 and REGN4513). The fixed concentration of hCD40-mmH was selected to be near the concentration (EC₅₀ value) that generated 50% of the maximal binding to the plate-adhered 9His-hCD40L. After one-hour incubation, the antibody-antigen complexes were transferred to the microtiter plate coated with 9His-hCD40L. After one hour incubation at room temperature, the plates were washed, and plate-bound hCD40-mmH protein was detected with horseradish peroxidase (HRP) conjugated goat anti-c-Myc antibody. The plates were then developed using TMB substrate solution (BD Biosciences) according to the manufacturer's recommended procedure and the absorbance at 450 nm (OD₄₅₀) was measured on a SpectraMax i3× plate reader.
# Binding data were analyzed using a sigmoidal (four-parameter logistic) dose-response model with GraphPad Prism™ software. […] The percent blocking of tested antibodies at the highest tested concentration ([…]) was calculated based on the formula shown below: […]
# [5] = target: T1, human CD40 expressed on cells; test: cell-based or functional assay; remark: listed apart in the source
# [6] = target: T1, human CD40 expressed on cells; test: cell-based or functional assay; remark: listed apart in the source
# [7] = target: T1, human CD40 expressed on cells; test: cell-based or functional assay; remark: listed apart in the source
# [8] = target: T1, human CD40 expressed on cells; test: cell-based or functional assay; remark: listed apart in the source
# [9] = target: T1, human CD40 expressed on cells; test: cell-based or functional assay; remark: listed apart in the source
# [10] = target: T1, human CD40 expressed on cells; test: cell-based or functional assay; remark: listed apart in the source
# T1 sequence (P25942 21-277): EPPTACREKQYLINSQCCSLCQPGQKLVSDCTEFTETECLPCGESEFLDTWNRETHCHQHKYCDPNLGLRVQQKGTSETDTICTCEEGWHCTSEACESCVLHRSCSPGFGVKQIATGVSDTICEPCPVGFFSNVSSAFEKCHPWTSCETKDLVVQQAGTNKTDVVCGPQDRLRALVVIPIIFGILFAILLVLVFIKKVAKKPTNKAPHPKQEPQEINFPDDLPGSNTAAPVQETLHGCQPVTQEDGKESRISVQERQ
# T2 sequence (chain, as listed by the source limits assumed): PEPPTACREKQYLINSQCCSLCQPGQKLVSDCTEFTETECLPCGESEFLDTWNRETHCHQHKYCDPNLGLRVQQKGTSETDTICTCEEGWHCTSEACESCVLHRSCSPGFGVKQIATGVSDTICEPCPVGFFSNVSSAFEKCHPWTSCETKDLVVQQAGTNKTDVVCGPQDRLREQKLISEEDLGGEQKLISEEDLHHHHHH
"IC50, NFkB-luc Ramos, 500 pM hCD40L [1]","Max % activation, NFkB-luc Ramos, no ligand [1]","Max % inhibition, NFkB-luc Ramos, 500 pM hCD40L [1]","% max blockade relative to no mAb, IL-6, assay #2, donor 1 [2]","% max blockade relative to no mAb, IL-6, assay #2, donor 2 [2]","IC50, NFkB-luc THP-1, 10 nM hCD40L [3]","Max % activation, NFkB-luc THP-1, no ligand [3]","Max % inhibition, NFkB-luc THP-1, 10 nM hCD40L [3]",% Blocking at highest mAb concentration [4],"IC50, NFkB-luc Raji, 900 pM hCD40L [6]","Max % activation, NFkB-luc Raji, no ligand [6]","Max % inhibition, NFkB-luc Raji, 900 pM hCD40L [6]","% max blockade relative to no mAb, IL-10, assay #2, donor 1 [8]","% max blockade relative to no mAb, IL-10, assay #2, donor 2 [8]","% max blockade relative to no mAb, TNFa, assay #2, donor 1 [9]","% max blockade relative to no mAb, TNFa, assay #2, donor 2 [9]",Binder,further results
6.93e-11 M,6%,91%,88.9%,89.2%,0.553 nM,1%,98%,98%,5.76e-11 M,13%,113%,87.7%,89.9%,62.8%,51.1%,"REGN16334 (bispecific antibody, human IgG4 S228P, kappa, also called REGN16634 [sic]) heavy 1: QLQLQESGPGLVRPSETLSLTCSVSGASMNTNNYYWGWIRQPPGKGLEWIGSGYYNGNTYYNPSLKSRVTISVDTSKNQFSLKLNSVTAADTAVYYCARQTPPRIIGSPNIWGQGTMVTVSSASTKGPSVFPLAPCSRSTSESTAALGCLVKDYFPEPVTVSWNSGALTSGVHTFPAVLQSSGLYSLSSVVTVPSSSLGTKTYTCNVDHKPSNTKVDKRVESKYGPPCPPCPAPGGGGPSVFLFPPKPKDTLMISRTPEVTCVVVDVSQEDPEVQFNWYVDGVEVHNAKTKPREEQFNSTYRVVSVLTVLHQDWLNGKEYKCKVSNKGLPSSIEKTISKAKGQPREPQVYTLPPSQEEMTKNQVSLTCLVKGFYPSDIAVEWESNGQPENNYKTTPPVLDSDGSFFLYSRLTVDKSRWQEGNVFSCSVMHEALHNHYTQKSLSLSLGK heavy 2: EVQLVESGGGLVQPGGSLRLSCAASGFTFGSYGMAWVRQAPGKGLEWVSAISGSGDYTNYADSVKRRFTISRDNSKNTLYLQMSSLRAEDTAVYYCAKEKTGTTGYLYSGMDVWGQGTTVTVSSASTKGPSVFPLAPCSRSTSESTAALGCLVKDYFPEPVTVSWNSGALTSGVHTFPAVLQSSGLYSLSSVVTVPSSSLGTKTYTCNVDHKPSNTKVDKRVESKYGPPCPPCPAPGGGGPSVFLFPPKPKDTLMISRTPEVTCVVVDVSQEDPEVQFNWYVDGVEVHNAKTKPREEQFNSTYRVVSVLTVLHQDWLNGKEYKCKVSNKGLPSSIEKTISKAKGQPREPQVYTLPPSQEEMTKNQVSLTCLVKGFYPSDIAVEWESNGQPENNYKTTPPVLDSDGSFFLYSRLTVDKSRWQEGNVFSCSVMHEALHNRFTQKSLSLSPGK light: not shown","% max blockade relative to no mAb, IL-10, B cells, donor 1 [5]: 74.2%; % max blockade relative to no mAb, IL-10, B cells, donor 2 [5]: 91.4%; % max blockade relative to no mAb, IL-10, B cells, donor 3 [5]: 92.4%; % max blockade relative to no mAb, TNFa, B cells, donor 1 [7]: 44%; % max blockade relative to no mAb, TNFa, B cells, donor 2 [7]: 63.5%; % max blockade relative to no mAb, TNFa, B cells, donor 3 [7]: 68.5%; % max blockade relative to no mAb, IL-6, B cells, donor 1 [10]: 84.5%; % max blockade relative to no mAb, IL-6, B cells, donor 2 [10]: 92%; % max blockade relative to no mAb, IL-6, B cells, donor 3 [10]: 92%"
–,–,–,89%,88.1%,–,–,–,–,–,–,–,87.1%,90.9%,61.9%,52.3%,"REGN20484 (bispecific antibody, human IgG4 S228P, kappa) heavy 1: EVQLVESGGGLVQPGGSLRLSCAASGFTFGSYGMAWVRQAPGKGLEWVSAISGSGDYTNYADSVKRRFTISRDNSKNTLYLQMSSLRAEDTAVYYCAKEKTGTTGYLYSGMDVWGQGTTVTVSSASTKGPSVFPLAPCSRSTSESTAALGCLVKDYFPEPVTVSWNSGALTSGVHTFPAVLQSSGLYSLSSVVTVPSSSLGTKTYTCNVDHKPSNTKVDKRVESKYGPPCPPCPAPGGGGPSVFLFPPKPKDTLMISRTPEVTCVVVDVSQEDPEVQFNWYVDGVEVHNAKTKPREEQFNSTYRVVSVLTVLHQDWLNGKEYKCKVSNKGLPSSIEKTISKAKGQPREPQVYTLPPSQEEMTKNQVSLTCLVKGFYPSDIAVEWESNGQPENNYKTTPPVLDSDGSFFLYSRLTVDKSRWQEGNVFSCSVMHEALHNHYTQKSLSLSLGK heavy 2: EVQLVESGGGLVQPGGSLRLSCAASGFTFSSYAMNWVRQAPGKGLEWVSIISGTIGKTYYADSVKGRFTISRDNSKNTLYLQMNSLRGEDTAVYYCAKDTERDITGSPFDYWGQGTLVTVSSASTKGPSVFPLAPCSRSTSESTAALGCLVKDYFPEPVTVSWNSGALTSGVHTFPAVLQSSGLYSLSSVVTVPSSSLGTKTYTCNVDHKPSNTKVDKRVESKYGPPCPPCPAPGGGGPSVFLFPPKPKDTLMISRTPEVTCVVVDVSQEDPEVQFNWYVDGVEVHNAKTKPREEQFNSTYRVVSVLTVLHQDWLNGKEYKCKVSNKGLPSSIEKTISKAKGQPREPQVYTLPPSQEEMTKNQVSLTCLVKGFYPSDIAVEWESNGQPENNYKTTPPVLDSDGSFFLYSRLTVDKSRWQEGNVFSCSVMHEALHNRFTQKSLSLSPGK light: not shown",–
–,4%,-133%,–,–,–,1%,-92%,–,2.72e-11 M,10%,55%,–,–,–,–,"REGN17289 (antibody, V domains shown) VH: EVQLVESGGGLVQPGGSLRLSCAASGFTFSSYAMNWVRQAPGKGLEWVSIISGTIGKTYYADSVKGRFTISRDNSKNTLYLQMNSLRGEDTAVYYCAKDTERDITGSPFDYWGQGTLVTVSS VL: not shown","EC50 in the presence of CD40L (potentiation), NFkB-luc Ramos, 500 pM hCD40L [1]: 7.51e-12 M; EC50 in the presence of CD40L (potentiation), NFkB-luc THP-1, 10 nM hCD40L [3]: 0.016 nM"
4.07e-11 M,6%,88%,–,–,0.334 nM,0%,98%,94%,4.28e-11 M,14%,90%,–,–,–,–,"REGN17288 (antibody, V domains shown) VH: QLQLQESGPGLVRPSETLSLTCSVSGASMNTNNYYWGWIRQPPGKGLEWIGSGYYNGNTYYNPSLKSRVTISVDTSKNQFSLKLNSVTAADTAVYYCARQTPPRIIGSPNIWGQGTMVTVSS VL: not shown",–
1.89e-10 M,10%,77%,–,–,1.13 nM,4%,96%,91%,1.35e-10 M,11%,81%,–,–,–,–,"REGN17544 (antibody, V domains shown) VH: EVQLVESGGGLVQPGGSLRLSCAASGFTFGSYGMAWVRQAPGKGLEWVSAISGSGDYTNYADSVKRRFTISRDNSKNTLYLQMSSLRAEDTAVYYCAKEKTGTTGYLYSGMDVWGQGTTVTVSS VL: not shown",–
